Results on one protein are retold here after PMC11154593, “New insights into the domain of unknown function (DUF) of EccC5, the pivotal ATPase providing the secretion driving force to the ESX-5 secretion system” (Acta Crystallographica. Section D, Structural Biology, 2024).

Values joined by “and” are separate entries in the source; they are usually repeats but may differ in a detail not shown here. Identical values can stand only once.

What is called stoichiometry N is the number of molecules, sites or subunits per partner or assembly.

This data set deals with the molecule itself. The experiment in a line: SEC; […] (16/60) […]; 20 mM Tris-HCl pH 7.5, 150 mM NaCl ([…]) or 20 mM HEPES pH 7.5, 150 mM NaCl, 5 mM MgCl2 ([…]; 4°C. In general terms: In gel filtration, larger molecules generally elute earlier.

B1: DUF domain of EccC5 from M. tuberculosis (crystallographic construct, residues 1-417 with 17-118 rep (domain or fragment)
chain: MKRGFARPTPEKPPVIGSSGQESADSMDANYRWFHPAPNTLAAAVGSPRMWERKPDGKDLNFGVVRVGGSGFGRYQSVVYNLPKMVSLLVEPWYALVGEREQVLGLMRAIICQLAFSHGPDHVQMIVVSSDLDQWDWVKWLPHFGDSRRHDAAGNARMVYTSVREFAAEQAELFAGRGSFTPRHASSSAQTPTPHTVIIADVDDPQWEYVISAEGVDGVTFFDLTGSSMWTDIPERKLQFDKTGVIEALPRDRDTWMVIDDKAWFFALTDQVSIAEAEEFAQKLAQWRLA
notes: EccC5, M. tuberculosis, UniProt P9WNA5, residues 1-16 (before the removed transmembrane region); linker replacing residues 17-118; EccC5, M. tuberculosis, UniProt P9WNA5, residues 119-166; linker replacing residues 167-198; EccC5, M. tuberculosis, UniProt P9WNA5, residues 199-417; also called MtbEccC5 DUF; EccC5 DUF; not shown: His6, N-terminal, cleaved; SUMO, N-terminal, cleaved
On to B1, for which the “stoichiometry N” value was 3 and 6.
